This passage reports Maximal inhibition of ADM bioactivity (ADM-Bioassay) (%) results from EP2594588A1.

This experiment addresses ADM (agonist of the ADM-Bioassay, human or mouse not told). Nature of the experiment: cell-based or functional assay.

The substance Non specific mouse IgG (antibody) came in with a Maximal inhibition of ADM bioactivity (ADM-Bioassay) (%) of 0%.
